# Test results as given in article PMC3274613 (Bioorganic & medicinal chemistry letters, 2012).
# Bridge positions count the residues as written; N and C are the ends. Square brackets hold non-standard residues; d marks the D form. Peptide text beside a SMILES is read from it.
# How the values were obtained:
# [1] = biological target: MC1 receptor; conditions: read-out: MC1 receptor binding affinity; M21 melanoma cells; cited from earlier work
# [2] = tested on: αvβ3 integrin receptor; conditions: relative to RGD-Lys-(Arg11)CCMSH; cited from earlier work
# [3] = mouse, in vivo
# [4] = tested on: B16/F1 melanoma-bearing C57 mice; assay: in vivo; conditions: C57, mouse, iv, 2 h
# [5] = in vivo; parameters: species or system mice; conditions: C57, mouse, iv, total radioactivity
# [6] = tested on: B16/F1 melanoma-bearing C57 mouse; assay: SPECT/CT melanoma imaging; format: in vivo; conditions: 2 h post-injection, approximately 6.7 MBq, one mouse
# [7] = tested on: B16/F1 melanoma cells; assay: Cellular internalization in B16/F1 melanoma cells; format: cell-based, murine
# [8] = 0.037 MBq, Uptake ratio Tumor/Lung
SMILES,IC50 [1],Decrease of αvβ3 integrin receptor binding affinity on switch from RGD to RAD [2],Transformed to a more lipophilic metabolite in urine [3],"Bladder, percent injected dose [4]","Blood, percent injected dose/gram [4]","Bone, percent injected dose/gram [4]","Heart, percent injected dose/gram [4]","Kidneys, percent injected dose/gram [4]","Lung, percent injected dose/gram [4]","Muscle, percent injected dose/gram [4]","Spleen, percent injected dose/gram [4]","Stomach, percent injected dose/gram [4]","tissue to tissue ratio at 0.5 h [5, 8]","tissue to tissue ratio at 2 h [5, 8]","tissue to tissue ratio at 4 h [5, 8]","tissue to tissue ratio at 24 h [5, 8]","tissue uptake dose at 2 h ([5]; Bladder, percent injected dose)",Visualization of flank melanoma tumors by SPECT/CT [6],Activity internalized ([7]; 20 min post incubation),Activity internalized ([7]; after 2 h incubation)
CC(C)[C@H](NC(=O)[C@@H]1CCCN1C(=O)[C@H](CCCNC(=N)N)NC(=O)[C@H](CS)NC(=O)[C@H](Cc1c[nH]c2ccccc12)NC(=O)[C@H](CCCNC(=N)N)NC(=O)[C@@H](Cc1ccccc1)NC(=O)[C@H](Cc1c[nH]cn1)NC(=O)[C@H](CCC(=O)O)NC(=O)[C@H](CS)NC(=O)[C@H](CS)NC(=O)[C@H](CCCCN)NC(=O)[C@@H]1CC(=O)N[C@@H](CCCNC(=N)N)C(=O)N[C@@H](C)C(=O)N[C@@H](CC(=O)O)C(=O)N[C@H](Cc2ccc(O)cc2)C(=O)N1)C(N)=O [RAD-Lys-(Arg^11)CCMSH] (RAD[dY]DKCCEH[dF]RWCRPV-NH2; lactam N-5; C-terminus assumed),0.3 nM,248 fold,–,–,–,–,–,–,–,–,–,–,–,–,–,–,–,–,–,–
"CC(C)[C@H](NC(=O)[C@@H]1CCCN1C(=O)[C@H](CCCNC(=N)N)NC(=O)[C@H](CS)NC(=O)[C@H](Cc1c[nH]c2ccccc12)NC(=O)[C@H](CCCNC(=N)N)NC(=O)[C@@H](Cc1ccccc1)NC(=O)[C@H](Cc1c[nH]cn1)NC(=O)[C@H](CCC(=O)O)NC(=O)[C@H](CS)NC(=O)[C@H](CS)NC(=O)[C@H](CCCCN)NC(=O)[C@@H]1CC(=O)N[C@@H](CCCNC(=N)N)C(=O)N[C@@H](C)C(=O)N[C@@H](CC(=O)O)C(=O)N[C@H](Cc2ccc(O)cc2)C(=O)N1)C(N)=O [^99mTc-RAD-Lys-(Arg^11)CCMSH, metal not drawn] (RAD[dY]DKCCEH[dF]RWCRPV-NH2; lactam N-5; C-terminus assumed)",–,–,18%,70.34 ± 3.28 %ID,0.44 ± 0.11 %ID/g,0.52 ± 0.31 %ID/g,0.30 ± 0.10 %ID/g,50.10 ± 18.56 %ID/g,0.78 ± 0.17 %ID/g,0.28 ± 0.30 %ID/g,0.50 ± 0.09 %ID/g,1.92 ± 0.24 %ID/g,4.26,22.9,39.1,31.9,69.54 ± 0.63 %ID,visualized clearly,59.20 ± 5.10%,78.24 ± 1.13%
